These results are taken from patent US20100322937A1.

Assay [1] deals with wtEGFR: full-length human EGFR with FLAG tag after the leader, on BaF/3 cells (human) (UniProt P00533). The experiment in a line: FACS, wtEGFR-BaF/3 cells after mock preincubation, antibody at 10 µg/ml. In general terms: In flow cytometry, cells or beads pass a laser one at a time.
For assay [2] the target is unchanged. The experiment in a line: FACS median fluorescence, wtEGFR-BaF/3 cells preincubated with EGF (10 ng/ml, 4 C, 15 min).
For assay [3] the target is unchanged. The experiment in a line: FACS median fluorescence, wtEGFR-BaF/3 cells preincubated with mAb[…] (10 µg/ml, 37 C, 1 hr).
Assay [4] addresses EGFR 273-621 C287R, yeast surface displayed (UniProt P00533). The experiment in a line: titration on yeast surface displayed fragment, flow cytometry, global fit of three data sets.
Assay [5] concerns the target wild-type EGFR 273-621 (C283A template), yeast surface displayed, C-terminal c-myc tag (UniProt P00533). The description is as above.
For assay [6], the target named is EGFR 273-621 E293K, yeast surface displayed (UniProt P00533). The experiment in a line: from titration on yeast surface displayed fragments.
For assay [7], the target named is EGFR 273-621 C287R, yeast surface displayed (UniProt P00533). Described as above.

monoclonal antibody 806 (mAb 806), murine IgG2b anti-EGFR, sequence (VH): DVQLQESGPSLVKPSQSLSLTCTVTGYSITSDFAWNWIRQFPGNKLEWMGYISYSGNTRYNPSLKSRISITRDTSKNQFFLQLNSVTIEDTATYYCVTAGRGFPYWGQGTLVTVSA
monoclonal antibody 806 (mAb 806), murine IgG2b anti-EGFR, sequence (VL): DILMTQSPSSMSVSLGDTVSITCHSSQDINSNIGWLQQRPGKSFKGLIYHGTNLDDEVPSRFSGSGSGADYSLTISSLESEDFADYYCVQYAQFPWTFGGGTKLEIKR

“monoclonal antibody 528 (mAb 528), IgG2a anti-EGFR” gave a median fluorescence in assay [1] of 112. Besides, the change (%) in antibody reactivity after preincubation was -23% in assay [2] and -3% in assay [3].

Regarding “monoclonal antibody 806 (mAb 806), murine IgG2b anti-EGFR”, the dissociation constant Kd in assay [4] amounted to 127 nM; in assay [5], 2.13 nM. Also, the median fluorescence in assay [1] was 7. The change (%) in antibody reactivity after preincubation in assay [2] is -48%; in assay [3], 163%. Besides, the ΔΔG compared to wild-type in assay [6] was determined as 5.7 kcal/mol; in assay [7], 2.4 kcal/mol.

Usually Kd stands for the free concentration of one partner at which half of the binding sites on the other are occupied at equilibrium, for simple one-to-one binding. Low readings indicate higher affinity, high ones lower affinity.
